The target of test [1] is pTau181标准品. Nature of the test: bead sandwich flow cytometry; Tau-2 on beads as capture, PE-labelled anti-pTau181 antibody as detector, 5μg/mL pTau181 standard.
The target of test [2] is pTau181标准品. Nature of the test: bead sandwich flow cytometry; Tau-3 on beads as capture, PE-labelled anti-pTau181 antibody as detector, 5μg/mL pTau181 standard. For orientation: A flow cytometer gives signals particle by particle.

B1: 实施例3纯化后的重组抗体(重组抗pTau181单克隆抗体) (antibody, mouse IgG1, kappa, V domains shown)
VH: LQQPGSEYARPGASVKLSCKASGYTFTSYWMHWVKQRHGQLLEWIGNIYPGSGSSNYDEKFKSKGTLTVDTSSSTAYMHLSSLTSEDSAVYYCTRSGWLLRDYAMDYWGQGTSVTVSS
VL: DVLMTQTPLSLPVSLGDQASISCRSSQSIVHSNGNTYLEWYLQKPGQSPKLLIYKVSTRFSGVPDRFSGSGSGTDFTLKISRVEAEDLGVYYCFQGSHVPYTFGGGTKLEIKA
modifications: 在实施例4中偶联藻红蛋白荧光素(方案1)或偶联微球(方案2)
On to B1, for which the 荧光信号强度 is 343000 in test [1] and 420000 in test [2].

For the origin of these results see CN117866087A.
